Where two headings read alike, the source gives them in different places.
B1: DC00051 (other)
chain 1: QVQLVESGGGLVQPGGSLRLSCATSGFTFRNNFMSWVRQAPGKGLEWVSTISYGGESTTYAESVKGRFTISRDNAKNTLYLQMNNLKPEDTAVYYCAKATSYDSIRSGSRGQGTQVTVSSGGGGSGGGGSGGGGSQVQLVESGGGLVQPGGSLRLSCATSGFTFRNNFMSWVRQAPGKGLEWVSTISYGGESTTYAESVKGRFTISRDNAKNTLYLQMNNLKPEDTAVYYCAKATSYDSIRSGSRGQGTQVTVSSDKTHTCPPCPAPEAAGGPSVFLFPPKPKDTLMISRTPEVTCVVVDVSHEDPEVKFNWYVDGVEVHNAKTKPREEQYNSTYRVVSVLTVLHQDWLNGKEYKCKVSNKALGAPIEKTISKAKGQPREPQVYTLPPSRDELTKNQVSLTCLVKGFYPSDIAVEWESNGQPENNYKTTPPVLDSDGSFLLYSKLTVDKSRWQQGNVFSCSVMHEALHNHYTQKSLSLSPGK
chain 2: QVQLVESGGGLVQAGGSLTLSCAAPGRTFGTDVVGWFRQAPGKEREFVASISRSGDGIYYDDSVKGRFTISRNNAWNTVNLQMNSLKVEDTAVYYCAAGDGWSTYDYWGQGTQVTVSSGGGGSGGGGSGGGGSEVQLVESGGGLVQTGGSLRLSCAASGGTFSRDAMAWFRQVPGKEREFVALISWSGATTNYADSVKGRFAISRDNGKNTVYLQMNRLKPADTAIYYCAADRRPMGSRSYFEPTEYDDWGQGTQVTVSSGGGGSGGGGSGGGGSQVQLVESGGGLVQPGGSLRLSCATSGFTFRNNFMSWVRQAPGKGLEWVSTISYGGESTTYAESVKGRFTISRDNAKNTLYLQMNNLKPEDTAVYYCAKATSYDSIRSGSRGQGTQVTVSSDKTHTCPPCPAPEAAGGPSVFLFPPKPKDTLMISRTPEVTCVVVDVSHEDPEVKFNWYVDGVEVHNAKTKPREEQYNSTYRVVSVLTVLHQDWLNGKEYKCKVSNKALGAPIEKTISKAKGQPREPQVYTLPPSRDELTKNQVSLTCLVKGFYPSDIAVEWESNGQPENNYKTTPPVLDSDGSFFLYSRLTVDKSRWQQGNVFSCSVMHEALHNHYTQKSLSLSPGK
B2: DC00052 (other)
chain 1: B1 chain 1
chain 2: QVQLVESGGGLVQAGGSLTLSCAAPGRTFGTDVVGWFRQAPGKEREFVASISRSGDGIYYDDSVKGRFTISRNNAWNTVNLQMNSLKVEDTAVYYCAAGDGWSTYDYWGQGTQVTVSSGGGGSGGGGSGGGGSQVQLVESGGGLVQPGGSLRLSCATSGFTFRNNFMSWVRQAPGKGLEWVSTISYGGESTTYAESVKGRFTISRDNAKNTLYLQMNNLKPEDTAVYYCAKATSYDSIRSGSRGQGTQVTVSSGGGGSGGGGSGGGGSEVQLVESGGGLVQTGGSLRLSCAASGGTFSRDAMAWFRQVPGKEREFVALISWSGATTNYADSVKGRFAISRDNGKNTVYLQMNRLKPADTAIYYCAADRRPMGSRSYFEPTEYDDWGQGTQVTVSSGGGGSGGGGSGGGGSDKTHTCPPCPAPEAAGGPSVFLFPPKPKDTLMISRTPEVTCVVVDVSHEDPEVKFNWYVDGVEVHNAKTKPREEQYNSTYRVVSVLTVLHQDWLNGKEYKCKVSNKALGAPIEKTISKAKGQPREPQVYTLPPSRDELTKNQVSLTCLVKGFYPSDIAVEWESNGQPENNYKTTPPVLDSDGSFFLYSRLTVDKSRWQQGNVFSCSVMHEALHNHYTQKSLSLSPGK
B3: DC00075 (other)
chain 1: QVQLVESGGGLVQAGGSLRLSCAASGIPFDNYAMGWFRQAPGKEREFVAARDLEGIITRYGDSVKGRFTISRGNAKNTVFLQMNSLKPEDTAVYYCAARDGGVVAGSRSSAQYNYWGQGTQVTVSSDKTHTCPPCPAPEAAGGPSVFLFPPKPKDTLMISRTPEVTCVVVDVSHEDPEVKFNWYVDGVEVHNAKTKPREEQYNSTYRVVSVLTVLHQDWLNGKEYKCKVSNKALGAPIEKTISKAKGQPREPQVYTLPPSRDELTKNQVSLTCLVKGFYPSDIAVEWESNGQPENNYKTTPPVLDSDGSFLLYSKLTVDKSRWQQGNVFSCSVMHEALHNHYTQKSLSLSPGK
chain 2: EVQLVESGGGLVQTGGSLRLSCAASGGTFSRDAMAWFRQVPGKEREFVALISWSGATTNYADSVKGRFAISRDNGKNTVYLQMNRLKPADTAIYYCAADRRPMGSRSYFEPTEYDDWGQGTQVTVSSGGGGSGGGGSGGGGSQVQLVESGGGLVQPGGSLRLSCATSGFTFRNNFMSWVRQAPGKGLEWVSTISYGGESTTYAESVKGRFTISRDNAKNTLYLQMNNLKPEDTAVYYCAKATSYDSIRSGSRGQGTQVTVSSGGGGSGGGGSGGGGSQVQLVESGGGLVQAGGSLTLSCAAPGRTFGTDVVGWFRQAPGKEREFVASISRSGDGIYYDDSVKGRFTISRNNAWNTVNLQMNSLKVEDTAVYYCAAGDGWSTYDYWGQGTQVTVSSGGGGSGGGGSGGGGSDKTHTCPPCPAPEAAGGPSVFLFPPKPKDTLMISRTPEVTCVVVDVSHEDPEVKFNWYVDGVEVHNAKTKPREEQYNSTYRVVSVLTVLHQDWLNGKEYKCKVSNKALGAPIEKTISKAKGQPREPQVYTLPPSRDELTKNQVSLTCLVKGFYPSDIAVEWESNGQPENNYKTTPPVLDSDGSFFLYSRLTVDKSRWQQGNVFSCSVMHEALHNHYTQKSLSLSPGK
B4: DC00076 (other)
chain 1: B3 chain 1
chain 2: QVQLVESGGGLVQPGGSLRLSCATSGFTFRNNFMSWVRQAPGKGLEWVSTISYGGESTTYAESVKGRFTISRDNAKNTLYLQMNNLKPEDTAVYYCAKATSYDSIRSGSRGQGTQVTVSSGGGGSGGGGSGGGGSQVQLVESGGGLVQAGGSLTLSCAAPGRTFGTDVVGWFRQAPGKEREFVASISRSGDGIYYDDSVKGRFTISRNNAWNTVNLQMNSLKVEDTAVYYCAAGDGWSTYDYWGQGTQVTVSSGGGGSGGGGSGGGGSEVQLVESGGGLVQTGGSLRLSCAASGGTFSRDAMAWFRQVPGKEREFVALISWSGATTNYADSVKGRFAISRDNGKNTVYLQMNRLKPADTAIYYCAADRRPMGSRSYFEPTEYDDWGQGTQVTVSSGGGGSGGGGSGGGGSDKTHTCPPCPAPEAAGGPSVFLFPPKPKDTLMISRTPEVTCVVVDVSHEDPEVKFNWYVDGVEVHNAKTKPREEQYNSTYRVVSVLTVLHQDWLNGKEYKCKVSNKALGAPIEKTISKAKGQPREPQVYTLPPSRDELTKNQVSLTCLVKGFYPSDIAVEWESNGQPENNYKTTPPVLDSDGSFFLYSRLTVDKSRWQQGNVFSCSVMHEALHNHYTQKSLSLSPGK
B5: DC00077 (other)
chain 1: B3 chain 1
chain 2: QVQLVESGGGLVQPGGSLRLSCATSGFTFRNNFMSWVRQAPGKGLEWVSTISYGGESTTYAESVKGRFTISRDNAKNTLYLQMNNLKPEDTAVYYCAKATSYDSIRSGSRGQGTQVTVSSGGGGSGGGGSGGGGSEVQLVESGGGLVQTGGSLRLSCAASGGTFSRDAMAWFRQVPGKEREFVALISWSGATTNYADSVKGRFAISRDNGKNTVYLQMNRLKPADTAIYYCAADRRPMGSRSYFEPTEYDDWGQGTQVTVSSGGGGSGGGGSGGGGSQVQLVESGGGLVQAGGSLTLSCAAPGRTFGTDVVGWFRQAPGKEREFVASISRSGDGIYYDDSVKGRFTISRNNAWNTVNLQMNSLKVEDTAVYYCAAGDGWSTYDYWGQGTQVTVSSGGGGSGGGGSGGGGSDKTHTCPPCPAPEAAGGPSVFLFPPKPKDTLMISRTPEVTCVVVDVSHEDPEVKFNWYVDGVEVHNAKTKPREEQYNSTYRVVSVLTVLHQDWLNGKEYKCKVSNKALGAPIEKTISKAKGQPREPQVYTLPPSRDELTKNQVSLTCLVKGFYPSDIAVEWESNGQPENNYKTTPPVLDSDGSFFLYSRLTVDKSRWQQGNVFSCSVMHEALHNHYTQKSLSLSPGK

Assays:
[1] = target: T1, human IL-2 receptor (IL-2Rα/IL-2Rβ/γc) (human, UniProt P01589 22-272; P14784 27-551; P31785 23-369); test: cell-based or functional assay
T1 sequence 1: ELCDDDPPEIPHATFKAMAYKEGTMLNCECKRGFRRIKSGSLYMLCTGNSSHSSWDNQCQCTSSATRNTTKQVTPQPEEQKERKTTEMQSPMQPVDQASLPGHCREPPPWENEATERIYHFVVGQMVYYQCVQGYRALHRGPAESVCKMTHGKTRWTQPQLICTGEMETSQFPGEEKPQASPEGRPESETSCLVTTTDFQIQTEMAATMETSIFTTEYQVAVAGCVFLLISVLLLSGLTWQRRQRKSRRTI
T1 sequence 2: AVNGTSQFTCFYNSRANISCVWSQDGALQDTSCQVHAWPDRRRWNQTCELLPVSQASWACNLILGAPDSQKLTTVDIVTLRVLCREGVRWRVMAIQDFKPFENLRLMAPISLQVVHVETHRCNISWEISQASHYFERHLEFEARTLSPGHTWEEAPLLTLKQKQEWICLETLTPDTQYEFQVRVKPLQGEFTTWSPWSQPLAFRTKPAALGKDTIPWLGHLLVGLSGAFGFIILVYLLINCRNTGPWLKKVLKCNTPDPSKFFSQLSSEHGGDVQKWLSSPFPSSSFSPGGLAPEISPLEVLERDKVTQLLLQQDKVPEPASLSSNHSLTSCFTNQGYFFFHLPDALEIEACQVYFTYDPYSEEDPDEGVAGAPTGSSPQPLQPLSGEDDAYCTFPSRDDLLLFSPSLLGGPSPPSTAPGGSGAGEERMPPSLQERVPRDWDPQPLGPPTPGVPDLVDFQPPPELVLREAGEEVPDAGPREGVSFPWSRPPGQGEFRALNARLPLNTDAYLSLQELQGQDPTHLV
T1 sequence 3: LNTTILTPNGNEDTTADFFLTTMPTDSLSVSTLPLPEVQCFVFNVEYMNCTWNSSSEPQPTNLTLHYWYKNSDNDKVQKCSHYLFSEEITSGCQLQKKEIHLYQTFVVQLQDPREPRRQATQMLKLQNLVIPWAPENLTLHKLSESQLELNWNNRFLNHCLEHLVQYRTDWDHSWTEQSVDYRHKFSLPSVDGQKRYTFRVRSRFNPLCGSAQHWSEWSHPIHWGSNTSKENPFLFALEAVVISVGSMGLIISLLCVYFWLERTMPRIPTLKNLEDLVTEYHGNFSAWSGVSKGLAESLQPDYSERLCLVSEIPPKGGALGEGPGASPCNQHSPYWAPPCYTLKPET

[2] = target: T1, human IL-2 receptor (IL-2Rα/IL-2Rβ/γc); test: cell-based or functional assay; remark: listed apart in the source

Binder | EC50 (nM) pSTAT5, NK, human PBMCs [1] [nM] | EC50 (nM) pSTAT5, Treg, human PBMCs [1] | Fold Max signal (% pSTAT5+) Treg/NK [1] [fold] | Max signal (% pSTAT5+), NK [1] [% pSTAT5+] | Max signal (% pSTAT5+), Treg [1] [% pSTAT5+] | fold EC50 NK/Treg [1] [fold] | EC50 (nM) pSTAT5, NK, human PBMCs [2] | EC50 (nM) pSTAT5, Treg, human PBMCs [2] [pM] | Fold Max signal (% pSTAT5+) Treg/NK [2] [fold] | Max signal (% pSTAT5+), NK [2] [% pSTAT5+] | Max signal (% pSTAT5+), Treg [2] [% pSTAT5+] | fold EC50 NK/Treg [2] [fold]
B1 | 0.191 | < 0.1 pM | 3 | 33 | 96 | > 1910 | – | – | – | – | – | –
B2 | 0.0812 | 0.00403 nM | 8 | 9 | 79 | 20 | – | – | – | – | – | –
B3 | – | – | – | – | – | – | 0.0032 nM | < 0.1 | 12 | 4.31 | 53.1 | > 32
B4 | – | – | – | – | – | – | 2.42 nM | < 0.1 | 4 | 14 | 59.4 | > 24200
B5 | – | – | – | – | – | – | 0.191 pM | < 0.1 | 7 | 7.96 | 58.4 | > 1.91

From patent US20240409645A1 (DUALYX, published 2024)
